Source: US20190169286A1 (Chugai, published 2019)
Changes are numbered by the printed parent chain. Names and notes keep the numbering of the source.

B1: Hr9/L16 (antibody, human IgG1, kappa, name in Kabat numbering, V domains shown)
VH: QVQLVESGGGLVQPGGSLRLSCAASGFTFSDYYLSWVRQAPGKGLEWVGLIRNKANGYTREYSASVKGRFTISRDDSKNSLYLQMSSLKTEDTAVYYCARENYRYDVELAYWGQGTLVTVSS
VL: DIQMTQSPSSLSASVGDRVTITCRASEIIYSYLAWYQQKPGKAPKLLIYNAKTHADGVPSRFSGSGSGTDFTFTISSLQPEDIATYYCQHHFGFPRTFGQGTKVEIKR
notes: WS4L-k0MT with L54H
B2: VH3-F1168m / L(WT) (antibody)
heavy: QVQLQESGPGLVKPSETLSLTCAVSGHSISHDHAWSWVRQPPGEGLEWIGFISYSGITNYNPSLQGRVTISRDNSKNTLYLQMNSLRAEDTAVYYCARSLARTTAMDYWGEGTLVTVSSASTKGPSVFPLAPSSKSTSGGTAALGCLVKDYFPEPVTVSWNSGALTSGVHTFPAVLQSSGLYSLSSVVTVPSSSLGTQTYICNVNHKPSNTKVDKKVEPKSCDKTHTCPPCPAPELLGGPSVFLFPPKPKDTLMISRTPEVTCVVVDVSHEDPEVKFNWYVDGVEVHNAKTKPREEQYNSTYRVVSVLTVLHQDWLNGKEYKCKVSNKALPAPIEKTISKAKGQPREPQVYTLPPSREEMTKNQVSLTCLVKGFYPSDIAVEWESNGQPENNYKTTPPVLDSDGSFFLYSKLTVDKSRWQQGNVFSCSVMHEALHAHYTRKELSLSP
light: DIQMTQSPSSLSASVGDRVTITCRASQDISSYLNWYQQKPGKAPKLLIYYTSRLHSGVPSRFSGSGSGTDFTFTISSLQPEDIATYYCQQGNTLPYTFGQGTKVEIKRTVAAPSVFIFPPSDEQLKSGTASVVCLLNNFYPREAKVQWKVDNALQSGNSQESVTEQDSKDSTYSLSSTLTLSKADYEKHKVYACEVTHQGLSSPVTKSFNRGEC
notes: Fc: N434A/Q438R/S440E
B3: VH3-F1847m / L(WT) (antibody)
heavy: B2 heavy with Y438T
light: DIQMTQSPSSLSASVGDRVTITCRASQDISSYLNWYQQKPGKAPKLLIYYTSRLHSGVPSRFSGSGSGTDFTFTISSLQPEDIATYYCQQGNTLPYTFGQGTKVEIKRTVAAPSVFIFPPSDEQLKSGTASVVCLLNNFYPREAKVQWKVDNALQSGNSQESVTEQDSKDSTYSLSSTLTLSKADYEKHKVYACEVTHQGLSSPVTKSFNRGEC
notes: Fc: N434A/Y436T/Q438R/S440E
B4: VH3-F1848m / L(WT) (antibody)
heavy: B2 heavy with Y438V
light: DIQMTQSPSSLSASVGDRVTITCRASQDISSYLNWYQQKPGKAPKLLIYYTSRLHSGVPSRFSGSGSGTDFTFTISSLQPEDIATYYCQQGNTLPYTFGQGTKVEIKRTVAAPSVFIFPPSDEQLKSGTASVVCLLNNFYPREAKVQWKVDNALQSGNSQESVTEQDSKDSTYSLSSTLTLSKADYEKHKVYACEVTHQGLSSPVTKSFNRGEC
notes: Fc: N434A/Y436V/Q438R/S440E
B5: VH3-F1886m / L(WT) (antibody)
heavy: B2 heavy with M430L, Y438T
light: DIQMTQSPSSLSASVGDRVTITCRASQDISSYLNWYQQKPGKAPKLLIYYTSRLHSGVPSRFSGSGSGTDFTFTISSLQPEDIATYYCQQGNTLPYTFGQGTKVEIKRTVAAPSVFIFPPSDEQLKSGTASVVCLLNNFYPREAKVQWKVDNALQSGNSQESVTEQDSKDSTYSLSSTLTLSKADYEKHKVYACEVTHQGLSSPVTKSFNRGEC
notes: Fc: M428L/N434A/Y436T/Q438R/S440E
B6: VH3-F1927m / L(WT) (antibody)
heavy: B2 heavy with M430L
light: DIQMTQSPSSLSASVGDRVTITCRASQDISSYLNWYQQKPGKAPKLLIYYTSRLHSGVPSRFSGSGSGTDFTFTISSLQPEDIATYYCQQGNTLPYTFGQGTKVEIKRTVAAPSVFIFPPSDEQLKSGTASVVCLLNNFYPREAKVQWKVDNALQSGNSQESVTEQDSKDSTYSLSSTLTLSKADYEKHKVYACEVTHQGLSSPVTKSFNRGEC
notes: Fc: M428L/N434A/Q438R/S440E
B7: VH3-F1889m / L(WT) (antibody)
heavy: B2 heavy with M430L, Y438V
light: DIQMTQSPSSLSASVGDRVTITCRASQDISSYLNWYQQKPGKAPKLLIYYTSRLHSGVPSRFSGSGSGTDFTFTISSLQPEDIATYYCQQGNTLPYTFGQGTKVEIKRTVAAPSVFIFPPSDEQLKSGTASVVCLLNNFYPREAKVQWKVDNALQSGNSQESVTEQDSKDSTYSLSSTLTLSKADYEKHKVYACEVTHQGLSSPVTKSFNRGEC
notes: Fc: M428L/N434A/Y436V/Q438R/S440E
B8: VH3-YTE / L(WT) (antibody, human IgG1, kappa)
heavy: B2 heavy with M254Y, S256T, T258E, A436N, R440Q, E442S
light: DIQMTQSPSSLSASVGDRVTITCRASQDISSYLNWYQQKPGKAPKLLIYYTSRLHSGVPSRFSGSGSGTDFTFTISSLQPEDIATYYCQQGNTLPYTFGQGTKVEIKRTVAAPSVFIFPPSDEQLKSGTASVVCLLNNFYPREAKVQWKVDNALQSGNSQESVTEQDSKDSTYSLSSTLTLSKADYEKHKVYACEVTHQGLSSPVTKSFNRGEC
notes: Fc: M252Y/S254T/T256E
B9: H1009/L395-F1886s (H1009-F1886s / L395-k0MT) (antibody)
heavy: QVQLVESGGGLVQPGGSLRLSCAASGFTFSDYYLSWVRQAPGKGLEWVGLIRNKDNYHTPEYSASVKGRFTISRDDSKNSLYLTMSDLKTEDTAVYYCARENHRYDVELAYWGQGTLVTVSSASTKGPSVFPLAPSSKSTSGGTAALGCLVKDYFPEPVTVSWNSGALTSGVHTFPAVLQSSGLYSLSSVVTVPSSSLGTQTYICNVNHKPSNTKVDKKVEPKSCDKTHTCPPCPAPELRRGPKVFLFPPKPKDTLMISRTPEVTCVVVDVSHEDPEVKFNWYVDGVEVHNAKTKPREEQYNSTYRVVSVLTVLHQDWLNGKEYKCKVSNKALPAPIEKTISKAKGQPREPQVYTLPPSREEMTKNQVSLTCLVKGFYPSDIAVEWESNGQPENNYKTTPPVLDSDGSFFLYSKLTVDKSRWQQGNVFSCSVLHEALHAHTTRKELSLSP
light: DIQMTQSPSSLSASVGDRVTITCRASEIIYSYLAWYQQKPGKAPKLLIYKAKTHADGVPSRFSGSGSGTDFTFTISSLQPEDIATYYCKHHFGFPRTFGQGTKVEIKRTVAAPSVFIFPPSDEQLKSGTASVVCLLNNFYPREAKVQWKVDNALQSGNSQESVTEQDSKDSTYSLSSTLTLSKADYEKHKVYACEVTHQGLSSPVTKSFNRGEC
B10: H1009/L395-F1886m (antibody)
heavy: B9 heavy with R240L, R241G, K244S
light: B9 light
B11: H1037/L0395 (antibody, human IgG1, kappa, name in Kabat numbering, V domains shown)
VH: B1 VH with S30D, D31K, A55D, G57Y, Y58H, T59H, R60P, Q84T, S87D, Y103H
VL: B1 VL with N50K, Q89K
B12: H1040/L0395 (antibody, human IgG1, kappa, name in Kabat numbering, V domains shown)
VH: B1 VH with D31E, A55D, G57H, Y58H, T59H, R60P, Q84T, S87D, Y103H
VL: B1 VL with N50K, Q89K
B13: H1047/L0395 (antibody, human IgG1, kappa, name in Kabat numbering, V domains shown)
VH: B1 VH with S30D, D31K, A55D, R60P, Q84T, S87D, Y103H
VL: B1 VL with N50K, Q89K
B14: H1049/L0442 (antibody, human IgG1, kappa, name in Kabat numbering, V domains shown)
VH: B1 VH with S30D, D31K, A55D, G57Y, Y58H, R60P, Q84T, S87D, Y103H
VL: B1 VL with S31E, N50K, Q89K
notes: L442 = L395 + S31E
B15: H1041/L0395 (antibody, human IgG1, kappa, name in Kabat numbering, V domains shown)
VH: B1 VH with D31E, A55D, T59H, R60P, Q84T, S87D, Y103H
VL: B1 VL with N50K, Q89K
B16: H1046/L0395 (antibody, human IgG1, kappa, name in Kabat numbering, V domains shown)
VH: B1 VH with D31E, A55D, G57Y, Y58H, T59H, R60P, Q84T, S87D, Y103H
VL: B1 VL with N50K, Q89K
B17: H1037/L0442 (antibody, human IgG1, kappa, name in Kabat numbering, V domains shown)
VH: B1 VH with S30D, D31K, A55D, G57Y, Y58H, T59H, R60P, Q84T, S87D, Y103H
VL: B1 VL with S31E, N50K, Q89K
notes: L442 = L395 + S31E
B18: H1050/L0395 (antibody, human IgG1, kappa, name in Kabat numbering, V domains shown)
VH: B1 VH with D31E, A55D, G57Y, Y58H, R60P, Q84T, S87D, Y103H
VL: B1 VL with N50K, Q89K
B19: H1050/L0442 (antibody, human IgG1, kappa, name in Kabat numbering, V domains shown)
VH: B1 VH with D31E, A55D, G57Y, Y58H, R60P, Q84T, S87D, Y103H
VL: B1 VL with S31E, N50K, Q89K
notes: L442 = L395 + S31E
B20: H1049/L0395 (antibody, human IgG1, kappa, name in Kabat numbering, V domains shown)
VH: B1 VH with S30D, D31K, A55D, G57Y, Y58H, R60P, Q84T, S87D, Y103H
VL: B1 VL with N50K, Q89K
B21: H1041/L0442 (antibody, human IgG1, kappa, name in Kabat numbering, V domains shown)
VH: B1 VH with D31E, A55D, T59H, R60P, Q84T, S87D, Y103H
VL: B1 VL with S31E, N50K, Q89K
notes: L442 = L395 + S31E

These binders were tested against T1, human IL-8 (human, UniProt P10145 23-99, limits assumed) (assay: SPR Biacore T200, Protein A/G capture, IL-8 analyte, pH 5.8, 37C).
T1 construct: also called hIL-8; hIL8
T1 sequence (P10145 23-99 limits assumed): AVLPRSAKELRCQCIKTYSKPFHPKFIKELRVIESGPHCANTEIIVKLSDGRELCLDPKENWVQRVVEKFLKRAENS
Procedure: (§2) An appropriate amount of Protein A/G (PIERCE) was immobilized onto Sensor chip CM4 (GE Healthcare) by the amine coupling method and the antibodies of interest was captured. […] To regenerate the sensor chip, 10 mM glycine-HCl at pH 1.5 was used. All measurements were carried out at 37° C. […] The BIACORE T200 Evaluation Software (GE Healthcare) was used to calculate each parameter.

Binder | koff [s⁻¹] | kon [M⁻¹ s⁻¹]
B1 | 0.000197 | 39100

These binders were tested against T2, human FcRn (human, UniProt P55899 24-290; P61769 21-119, limits assumed) (assay: SPR Biacore T100, Ab captured on Protein L, FcRn analyte, pH 6.0, 25C).
T2 construct: also called hFcRn
T2 sequence (P55899 24-290 limits assumed, chain 1 of 2): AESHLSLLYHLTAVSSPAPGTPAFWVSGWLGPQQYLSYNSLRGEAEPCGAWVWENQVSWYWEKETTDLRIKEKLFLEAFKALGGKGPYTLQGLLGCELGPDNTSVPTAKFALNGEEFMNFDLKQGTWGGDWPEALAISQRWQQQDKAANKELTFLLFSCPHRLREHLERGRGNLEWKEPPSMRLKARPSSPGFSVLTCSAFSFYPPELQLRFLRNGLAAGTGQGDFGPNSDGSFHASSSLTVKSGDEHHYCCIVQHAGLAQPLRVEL
T2 sequence (P61769 21-119 limits assumed, chain 2 of 2): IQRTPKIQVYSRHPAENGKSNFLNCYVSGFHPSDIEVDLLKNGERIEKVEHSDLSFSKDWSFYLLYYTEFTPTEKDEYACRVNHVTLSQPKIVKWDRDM
Procedure: Antibodies containing VH3-IgG1m or an above-mentioned variant as the heavy chain and L(WT) (SEQ ID NO:1) as the light chain were produced by the method of Reference Example 2, and the binding activity toward human FcRn was evaluated as follows.
Kinetic analyses of human FcRn and each of the antibodies were carried out using BIACORE T100 (GE Healthcare). […] For the running buffer, 50 mM sodium phosphate, 150 mM NaCl, and 0.05% (w/v) Tween 20 at pH 6.0 was used, and the respective buffer was also used to dilute FcRn. […] All measurements were carried out at 25° C.

Binder | Kd [nM]
B2 | 410
B3 | 367
B4 | 295
B5 | 108
B6 | 125
B7 | 103
B8 | 148

What follows are binders tested against T3, soluble human FcγRIa (His-tagged) (human, UniProt P12314 16-292, limits assumed) (assay: SPR (Biacore T200), antibody captured on rProtein L on a CM4 chip, soluble His-tagged FcγR injected, HBS-EP+, 20 °C).
T3 construct: also called hFcγRIa; not shown: His tag
T3 sequence (P12314 16-292 limits assumed): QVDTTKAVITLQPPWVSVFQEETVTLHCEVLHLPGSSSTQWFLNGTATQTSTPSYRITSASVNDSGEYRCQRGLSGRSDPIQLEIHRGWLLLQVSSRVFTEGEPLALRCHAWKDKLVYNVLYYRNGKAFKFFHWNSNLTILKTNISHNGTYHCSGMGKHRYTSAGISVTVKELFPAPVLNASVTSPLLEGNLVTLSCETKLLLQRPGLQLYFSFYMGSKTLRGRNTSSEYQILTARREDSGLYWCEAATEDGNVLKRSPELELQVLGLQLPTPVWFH
Procedure: (§1) Soluble FcγRIa and FcγRIIIa in both human and cynomolgus monkey were produced in the form of His-tagged molecules by methods known to those of ordinary skill in the art. […] Next, soluble FcγRIa or FcγRIIIa was injected with a running buffer (used as a reference solution), and was made to interact with the antibodies captured onto the sensor chip. HBS-EP+(GE Healthcare) was used as the running buffer, and HBS-EP+ was also used to dilute the soluble FcγRIa or FcγRIIIa. […] All measurements were carried out at 20° C.

Binder | binding result
B9 | no binding (tested: not given)
B10 | binds

What follows are binders tested against T4, soluble human FcγRIIIa (His-tagged) (human, UniProt P08637 17-208) in the same assay as above.
T4 construct: also called hFcγRIIIa; not shown: His tag
T4 sequence (P08637 17-208 limits assumed): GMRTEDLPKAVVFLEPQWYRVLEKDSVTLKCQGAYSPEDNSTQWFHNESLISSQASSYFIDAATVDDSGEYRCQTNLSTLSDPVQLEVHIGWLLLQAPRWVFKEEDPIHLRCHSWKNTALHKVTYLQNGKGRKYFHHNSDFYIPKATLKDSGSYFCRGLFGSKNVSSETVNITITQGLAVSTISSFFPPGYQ
Procedure: as §1

Binder | binding result
B9 | no binding (tested: not given)

What follows are binders tested against T5, soluble cynomolgus monkey FcγRIIIa (His-tagged) (cynomolgus monkey, UniProt Q8SPW2 17-208) in the same assay as above.
T5 construct: also called cynoFcγRIIIa; not shown: His tag
T5 sequence (Q8SPW2 17-208 limits assumed): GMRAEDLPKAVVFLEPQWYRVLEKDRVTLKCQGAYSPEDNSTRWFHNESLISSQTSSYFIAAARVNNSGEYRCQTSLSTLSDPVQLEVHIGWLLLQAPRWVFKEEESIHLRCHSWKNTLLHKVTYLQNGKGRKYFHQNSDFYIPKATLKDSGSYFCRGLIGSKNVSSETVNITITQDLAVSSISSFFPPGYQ
Procedure: as §1

Binder | binding result
B9 | no binding (tested: not given)
B10 | binds

These binders were tested against T1, human IL-8 (assay: SPR Biacore T200, 37C; ratio between pH 7.4 and pH 5.8).
Procedure: as §2

Binder | KD Ratio (pH 5.8/pH 7.4) | Koff Ratio (pH 5.8/pH 7.4) | kon Ratio (pH 7.4/pH 5.8)
B1 | 46.8 | 2.1 | 22.8

What follows are binders tested against T1, human IL-8 (assay: SPR Biacore T200, Protein A/G capture, pH 7.4, 40C;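 further: antibodies captured via Protein A/G, which was amine-coupled to a CM4 sensor chip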).
Procedure: (§3) An appropriate amount of Protein A/G (PIERCE) was immobilized onto the Sensor chip CM4 (GE Healthcare) by the amine coupling method and the antibodies of interest were captured. […] To regenerate the sensor chip, 25 mM NaOH and 10 mM glycine-HCl (pH 1.5) were used. […] The BIACORE T200 Evaluation Software (GE Healthcare) was used to calculate each parameter.

Binder | Kd [nM]
B11 | 0.094
B12 | 0.26
B13 | 0.095
B14 | 0.053
B15 | 0.08
B16 | 0.18
B17 | 0.13
B18 | 0.066
B19 | 0.099
B20 | 0.025
B21 | 0.12

These binders were tested against T1, human IL-8 (assay: SPR Biacore T200, Protein A/G capture, pH 5.8, 37C;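 further: antibodies captured by Protein A/G amine-coupled onto a CM4 sensor chip, with kinetic parameters derived using Biacore T200 Evaluation Software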).
Procedure: as §3

Binder | Kd [nM] | koff [s⁻¹]
B11 | 70 | 0.015
B12 | 240 | 0.046
B13 | 47 | 0.006
B14 | 33 | 0.0045
B15 | 71 | 0.013
B16 | 160 | 0.012
B17 | 61 | 0.015
B18 | 77 | 0.005
B19 | 54 | 0.0076
B20 | 38 | 0.004
B21 | 61 | 0.015

What follows are binders tested against T1, human IL-8 (assay: SPR Biacore T200, Protein A/G capture, IL-8 analyte, pH 7.4, 37C).
Procedure: as §2

Binder | koff [s⁻¹] | kon [M⁻¹ s⁻¹]
B1 | 9.57e-05 | 890000
